One block for each molecule: values may come before it.
Tests used:
GST-hSu(fu) = target: T1, GST-hSu(fu) (UniProt Q9UMX1)
T1 sequence: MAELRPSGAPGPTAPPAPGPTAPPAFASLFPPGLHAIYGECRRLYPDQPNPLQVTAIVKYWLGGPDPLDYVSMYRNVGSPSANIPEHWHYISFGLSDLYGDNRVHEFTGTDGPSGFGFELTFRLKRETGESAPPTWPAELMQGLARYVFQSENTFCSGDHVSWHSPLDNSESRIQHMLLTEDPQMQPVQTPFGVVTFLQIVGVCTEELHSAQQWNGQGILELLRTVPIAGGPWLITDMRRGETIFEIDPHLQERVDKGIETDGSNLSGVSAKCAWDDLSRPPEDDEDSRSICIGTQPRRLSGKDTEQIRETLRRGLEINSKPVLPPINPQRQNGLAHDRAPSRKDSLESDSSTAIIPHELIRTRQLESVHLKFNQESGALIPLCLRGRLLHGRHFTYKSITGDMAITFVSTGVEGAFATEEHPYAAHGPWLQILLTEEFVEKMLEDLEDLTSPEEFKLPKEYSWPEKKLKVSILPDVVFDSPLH

hfused C-Flag = target: T2, hfused C-Flag (human, UniProt Q9NRP7 1-1315); test: 293 cells, anti-Myc or anti-Flag IP, immunoblot
T2 construct: also called human fused C-Flag
T2 sequence: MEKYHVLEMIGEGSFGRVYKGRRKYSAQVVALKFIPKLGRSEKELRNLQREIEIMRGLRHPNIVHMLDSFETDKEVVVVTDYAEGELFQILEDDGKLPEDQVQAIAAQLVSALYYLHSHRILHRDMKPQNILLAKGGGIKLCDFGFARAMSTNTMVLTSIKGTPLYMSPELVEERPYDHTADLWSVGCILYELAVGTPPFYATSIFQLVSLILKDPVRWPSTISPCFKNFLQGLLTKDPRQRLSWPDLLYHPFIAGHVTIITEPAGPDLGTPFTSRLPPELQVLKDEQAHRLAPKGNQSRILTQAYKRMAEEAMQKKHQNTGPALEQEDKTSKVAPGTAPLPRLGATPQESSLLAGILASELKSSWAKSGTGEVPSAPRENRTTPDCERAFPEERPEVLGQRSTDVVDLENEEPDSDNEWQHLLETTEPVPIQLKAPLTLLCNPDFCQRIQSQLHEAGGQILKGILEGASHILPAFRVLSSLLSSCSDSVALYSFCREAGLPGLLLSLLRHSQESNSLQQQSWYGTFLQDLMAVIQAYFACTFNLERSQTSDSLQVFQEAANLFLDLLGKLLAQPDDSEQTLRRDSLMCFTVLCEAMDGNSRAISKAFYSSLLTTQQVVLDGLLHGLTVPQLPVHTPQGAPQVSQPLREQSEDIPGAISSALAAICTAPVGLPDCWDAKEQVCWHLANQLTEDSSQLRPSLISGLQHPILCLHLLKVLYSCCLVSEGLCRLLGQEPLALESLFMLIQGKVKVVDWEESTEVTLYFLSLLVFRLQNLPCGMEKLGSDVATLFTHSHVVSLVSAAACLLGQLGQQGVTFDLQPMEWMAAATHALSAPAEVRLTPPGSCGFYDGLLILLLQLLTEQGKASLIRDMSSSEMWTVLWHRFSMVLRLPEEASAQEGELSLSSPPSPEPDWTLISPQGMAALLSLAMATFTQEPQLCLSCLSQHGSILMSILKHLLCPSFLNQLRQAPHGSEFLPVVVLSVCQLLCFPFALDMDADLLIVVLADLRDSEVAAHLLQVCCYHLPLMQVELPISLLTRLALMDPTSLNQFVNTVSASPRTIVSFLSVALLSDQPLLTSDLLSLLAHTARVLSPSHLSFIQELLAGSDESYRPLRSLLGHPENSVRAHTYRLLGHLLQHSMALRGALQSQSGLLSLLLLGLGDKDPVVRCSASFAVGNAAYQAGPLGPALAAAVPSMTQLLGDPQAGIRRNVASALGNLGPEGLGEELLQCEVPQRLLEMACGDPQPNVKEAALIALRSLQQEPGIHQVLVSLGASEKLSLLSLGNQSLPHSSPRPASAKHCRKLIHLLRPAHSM
Description: (§1) FIG. 14 describes the biochemical interaction of hFu, hSu(fu) and hGli-1. FIG. 14(A) depicts the interaction of hFu with hSu(fu) in mammalian cells. 293 cells were transfected with hfused and hSu(fu) C-Flag or hfused C-Flag and hSu(fu) C-Myc either alone or in combination. Cell lysates were subjected to anti-Flag immunoprecipitation, and co-precipitating proteins were detected by immunoblotting. FIG. 14(B) depicts the interaction of hfused with hGli-1 in mammalian cells. 293 cells were transfected with hfused C-Flag or N-Myc hGli-1 both alone or in combination, and immunoprecipitated with anti-Myc or anti-Flag antibodies. Proteins were detected by immunoblotting. […] 293 cells were transfected with N-Myc hGli-1, hSu(fu) C-Flag and increasing amounts of hfused. The amount of hfused and hSu(fu) bound to hGli-1 was determined by anti-Myc immunoprecipitation and immunoblotting. Protein expression was analyzed by immunoblotting aliquots of total cell lysates (bottom panel).
(§2) For immunoprecipitation experiments human embryonic kidney 293 cells or C3H10T1/2 cells (ATCC 226-CCL) were transiently transfected with the various expression plasmids in 10 cm plates with lipofectamine (Gibco […]). For every transfection, the total amount of DNA was normalized with an expression plasmid encoding EGFP. […]

human fused = target: T3, human fused (human, UniProt Q9NRP7 1-1315); test: FIG. 14C: 293 cells transfected with N-Myc hGli-1, hSu(fu) C-Flag and increasing amounts of hfused
T3 construct: The same id is used for endogenous human fused of 293 cells in the GST-hSu(fu) pull-down; also called hfused; hFu
T3 sequence: T2 sequence
Description: as §1, §2

Molecule: purified PKAc (Upstate biotechnology)
in vitro kinase assay with [γ-32P]ATP (GST-hSu(fu)): when tested in vitro, GST-hSu(fu) was highly phosphorylated by purified PKAc

binding result (hfused C-Flag): binds
binding result (human fused): binds
B1: N-Myc hGli-1 (other, human, UniProt P08151 1-1106, looked up, not shown: small tags and cut ends)
chain: MFNSMTPPPISSYGEPCCLRPLPSQGAPSVGTEGLSGPPFCHQANLMSGPHSYGPARETNSCTEGPLFSSPRSAVKLTKKRALSISPLSDASLDLQTVIRTSPSSLVAFINSRCTSPGGSYGHLSIGTMSPSLGFPAQMNHQKGPSPSFGVQPCGPHDSARGGMIPHPQSRGPFPTCQLKSELDMLVGKCREEPLEGDMSSPNSTGIQDPLLGMLDGREDLEREEKREPESVYETDCRWDGCSQEFDSQEQLVHHINSEHIHGERKEFVCHWGGCSRELRPFKAQYMLVVHMRRHTGEKPHKCTFEGCRKSYSRLENLKTHLRSHTGEKPYMCEHEGCSKAFSNASDRAKHQNRTHSNEKPYVCKLPGCTKRYTDPSSLRKHVKTVHGPDAHVTKRHRGDGPLPRAPSISTVEPKREREGGPIREESRLTVPEGAMKPQPSPGAQSSCSSDHSPAGSAANTDSGVEMTGNAGGSTEDLSSLDEGPCIAGTGLSTLRRLENLRLDQLHQLRPIGTRGLKLPSLSHTGTTVSRRVGPPVSLERRSSSSSSISSAYTVSRRSSLASPFPPGSPPENGASSLPGLMPAQHYLLRARYASARGGGTSPTAASSLDRIGGLPMPPWRSRAEYPGYNPNAGVTRRASDPAQAADRPAPARVQRFKSLGCVHTPPTVAGGGQNFDPYLPTSVYSPQPPSITENAAMDARGLQEEPEVGTSMVGSGLNPYMDFPPTDTLGYGGPEGAAAEPYGARGPGSLPLGPGPPTNYGPNPCPQQASYPDPTQETWGEFPSHSGLYPGPKALGGTYSQCPRLEHYGQVQVKPEQGCPVGSDSTGLAPCLNAHPSEGPPHPQPLFSHYPQPSPPQYLQSGPYTQPPPDYLPSEPRPCLDFDSPTHSTGQLKAQLVCNYVQSQQELLWEGGGREDAPAQEPSYQSPKFLGGSQVSPSRAKAPVNTYGPGFGPNLPNHKSGSYPTPSPCHENFVVGANRASHRAAAPPRLLPPLPTCYGPLKVGGTNPSCGHPEVGRLGGGPALYPPPEGQVCNPLDSLDLDNTQLDFVAILDEPQGLSPPPSHDQRGSSGHTPPPSGPPNMAVGNMSVLLRSLPGETEFLNSSA
notes: Expressed in C3H10T1/2 or 293 cells; also called human Gli-1
